Data published in the supplement of paper PMC10899765.
“And” between values parts separate entries of the source, which are not always exact repeats. Equal entries are not always repeated.

Each sequence was assayed on MCF10A (assay: 5+ nucleoli phenotype percent effect (relative to siNT 0% and siKIF11 100%); higher = more cells with five or more nucleoli). Settings: 20 nM; 72 h.
Experimental: (§1)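 After 72 h, cells were fixed and stained with Hoechst and anti-fibrillarin, and nucleoli per nucleus were counted with CellProfiler. Values are plate-adjusted percent effect for the one-nucleolus and 5+ nucleoli phenotypes, normalised to siNT (0%) and to the positive controls siNOL11 or siKIF11 (100%), as the mean of biological triplicates. Percent viability is the nuclei count relative to siNT.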
“CUCUAGAGGGAAGCGCUUUCUG [hsa-miR-519a-5p]” was tested, and the “5+ nucleoli phenotype percent effect” value was -2.96%.
For “AGUGCCUGAGGGAGUAAGAG [hsa-miR-550a-3-5p]”, the “5+ nucleoli phenotype percent effect” value was -17.5%.
“CACUGCAUUCCUGCUUGGCCCAG [hsa-miR-6807-3p]” was tested, and the “5+ nucleoli phenotype percent effect” value was 6.87%.
AAAAGCUGGGUUGAGAGGA [hsa-miR-320d] was tested, and the “5+ nucleoli phenotype percent effect” value was -8.63% and -12.1%.
In the case of AAUGUGGACUGGUGUGACCAAA [hsa-miR-4491], the “5+ nucleoli phenotype percent effect” value was 20.6%.
In the case of AGGGCCCCCCCUCAAUCCUGU [hsa-miR-296-5p], the “5+ nucleoli phenotype percent effect” value was 11.6%.
“UCGCAGACAGGGACACAUGGAGA [hsa-miR-6767-5p]” was tested, and the “5+ nucleoli phenotype percent effect” value was 0.353%.
For “AGGGGGCGCAGUCACUGACGUG [hsa-miR-4697-5p]”, the “5+ nucleoli phenotype percent effect” value was -0.0636%.
With AAGGGAAGAUGGUGACCAC [hsa-miR-9500] the “5+ nucleoli phenotype percent effect” value was -15.3%.
With “AGUGGUUCUUAACAGUUCAACAGUU [hsa-miR-203a-5p]” the “5+ nucleoli phenotype percent effect” value was 60.5%.
In the case of CAACACCAGUCGAUGGGCUGU [hsa-miR-21-3p], the “5+ nucleoli phenotype percent effect” value was -31.2%.
For “UGAGAACUGAAUUCCAUAGGCU [hsa-miR-146b-5p]”, the “5+ nucleoli phenotype percent effect” value was -25.8%.
“CACACAAGUGGCCCCCAACACU [hsa-miR-4731-3p]” was tested, and the “5+ nucleoli phenotype percent effect” value was -12.1%.
“UCUCAGCUGCUGCCCUCUCCAG [hsa-miR-6787-3p]” was tested, and the “5+ nucleoli phenotype percent effect” value was 41.8%.
UGGGAACUUAGUAGAGGUUUAA [hsa-miR-4471] was tested, and the “5+ nucleoli phenotype percent effect” value was 7.89%.
CAGGGGGACUGGGGGUGAGC [hsa-miR-6794-5p] was tested, and the “5+ nucleoli phenotype percent effect” value was 7.3%.
For CUCCUGGGGCCCGCACUCUCGC [hsa-miR-1343], the “5+ nucleoli phenotype percent effect” value was 7.58%.
For “CGGGGCCAUGGAGCAGCCUGUGU [hsa-miR-6762-5p]”, the “5+ nucleoli phenotype percent effect” value was 28.2%.
In the case of UGGGGCUAGUGAUGCAGGACG [hsa-miR-4489], the “5+ nucleoli phenotype percent effect” value was -9.01%.
In the case of “UCCCUCGCCUUCUCACCCUCAG [hsa-miR-6803-3p]”, the “5+ nucleoli phenotype percent effect” value was 25.3%.
ACCUGAGGUUGUGCAUUUCUAA [hsa-miR-544b] was tested, and the “5+ nucleoli phenotype percent effect” value was -17.6%.
For CAGGGAACCAGUUGGGGCUU [hsa-miR-6822-5p], the “5+ nucleoli phenotype percent effect” value was -8.39%.
In the case of UUAGUGAAGGCUAUUUUAAUU [hsa-miR-3606-5p], the “5+ nucleoli phenotype percent effect” value was -9.93%.
In the case of CCUGUCUGUGCCUGCUGUACA [hsa-miR-3120-5p], the “5+ nucleoli phenotype percent effect” value was 4.71%.
For CAUCUUCCAGUACAGUGUUGGA [hsa-miR-141-5p], the “5+ nucleoli phenotype percent effect” value was -4.79%.
In the case of “UGGUGCGGAGAGGGCCCACAGUG [hsa-miR-675-5p]”, the “5+ nucleoli phenotype percent effect” value was -14%.
With AGAGGUAGUAGGUUGCAUAGUU [hsa-let-7d-5p] the “5+ nucleoli phenotype percent effect” value was 30.8%.
In the case of UAAUACUGUCUGGUAAAACCGU [hsa-miR-429], the “5+ nucleoli phenotype percent effect” value was 61.9%.
With AGGAGAUCCUGGGUU [hsa-miR-3676-5p] the “5+ nucleoli phenotype percent effect” value was -13.3%.
For “UCCCUGAGACCCUUUAACCUGUGA [hsa-miR-125a-5p]”, the “5+ nucleoli phenotype percent effect” value was 28.8%.
AGGAGGACAAGUUGUGGGAU [hsa-miR-7154-3p] was tested, and the “5+ nucleoli phenotype percent effect” value was -9.57%.
In the case of UAUUCAGGAAGGUGUUACUUAA [hsa-miR-506-5p], the “5+ nucleoli phenotype percent effect” value was -1.47%.
With AUAUGGGUUUACUAGUUGGU [hsa-miR-3115] the “5+ nucleoli phenotype percent effect” value was -8.18%.
With UUAGACCUAGUACACGUCCUU [hsa-miR-3684] the “5+ nucleoli phenotype percent effect” value was 16.1%.
“CAGGCACGGGAGCUCAGGUGAG [hsa-miR-3622a-5p]” was tested, and the “5+ nucleoli phenotype percent effect” value was -21.7%.
For “AAUUUGGUUUCUGAGGCACUUAGU [hsa-miR-5002-5p]”, the “5+ nucleoli phenotype percent effect” value was 1.85%.
With “UGCAAAAGUAAUUGCAGUUUUUG [hsa-miR-548aj-5p]” the “5+ nucleoli phenotype percent effect” value was 4.35%.
In the case of UGGUAGAGCUGAGGACA [hsa-miR-4451], the “5+ nucleoli phenotype percent effect” value was 9.42%.
For UUUCUCUCUCCACUUCCUCAG [hsa-miR-6833-3p], the “5+ nucleoli phenotype percent effect” value was 22.2%.
With GAGGAAACUGAAGCUGAGAGGG [hsa-miR-4496] the “5+ nucleoli phenotype percent effect” value was 40.4%.
With “UAGGGGUGGGGGAAUUCAGGGGUGU [hsa-miR-6782-5p]” the “5+ nucleoli phenotype percent effect” value was 1.01%.
In the case of CUGGCCCUCUCUGCCCUUCCGU [hsa-miR-328], the “5+ nucleoli phenotype percent effect” value was 47.4%.
“CAGCAGGGGAGAGAGAGGAGUC [hsa-miR-6510-5p]” was tested, and the “5+ nucleoli phenotype percent effect” value was -10.7%.
In the case of AGGGACGGGACGCGGUGCAGUG [hsa-miR-92b-5p], the “5+ nucleoli phenotype percent effect” value was 34.3%.
With “CAGCCCUCCUCCCGCACCCAAA [hsa-miR-4687-5p]” the “5+ nucleoli phenotype percent effect” value was -6.45%.
In the case of GUGCUUCAUCGUAAUUAACCUUA [hsa-miR-3977], the “5+ nucleoli phenotype percent effect” value was -18.9%.
With AGGGUGUGUGUGUUUUU [hsa-miR-4455] the “5+ nucleoli phenotype percent effect” value was 13.6%.
“UCCCAGGGUCUGGUCAGAGUUG [hsa-miR-6764-5p]” was tested, and the “5+ nucleoli phenotype percent effect” value was -18.4%.
With UCCAGGCAGGAGCCGGACUGGA [hsa-miR-4673] the “5+ nucleoli phenotype percent effect” value was 14.9%.
In the case of “AACACUGGCCUUGCUAUCCCCA [hsa-miR-6757-3p]”, the “5+ nucleoli phenotype percent effect” value was -35%.
UCUAGGCUGGUACUGCUGA [hsa-miR-645] was tested, and the “5+ nucleoli phenotype percent effect” value was 7.45%.
For “CCCAGUGUUUAGACUAUCUGUUC [hsa-miR-199b-5p]”, the “5+ nucleoli phenotype percent effect” value was 26.5%.
For “GAGUGGAUAGGGGAGUGUGUGGA [hsa-miR-6849-5p]”, the “5+ nucleoli phenotype percent effect” value was 31%.
“ACUGGCAUGCUGCAUUUAUAUA [hsa-miR-4799-3p]” was tested, and the “5+ nucleoli phenotype percent effect” value was 50.9%.
For ACUGGCCUGGGACUACCGG [hsa-miR-3176], the “5+ nucleoli phenotype percent effect” value was 35.3%.
UAGCGGGGAUUCCAAUAUUGG [hsa-miR-4781-5p] was tested, and the “5+ nucleoli phenotype percent effect” value was -29.7%.
For “AGAUUGUUUCUUUUGCCGUGCA [hsa-miR-4445-5p]”, the “5+ nucleoli phenotype percent effect” value was -21.9%.
With UAUAGAGAGCAGGAAGAUUAAUGU [hsa-miR-3976] the “5+ nucleoli phenotype percent effect” value was 31.2%.
AAAAGUAAUCACUGUUUUUGCC [hsa-miR-548y] was tested, and the “5+ nucleoli phenotype percent effect” value was 42.1%.

What follows are sequences tested on MCF10A (assay: percent viability (nuclei count relative to siNT); higher = more viable cells). Settings: 20 nM; 72 h.
Experimental: as §1
With “CUCUAGAGGGAAGCGCUUUCUG [hsa-miR-519a-5p]” the percent viability was 56.5%.
Sequence “AGUGCCUGAGGGAGUAAGAG [hsa-miR-550a-3-5p]” has a percent viability of 79.3%.
“CACUGCAUUCCUGCUUGGCCCAG [hsa-miR-6807-3p]” was tested, and the percent viability was 48.2%.
AAAAGCUGGGUUGAGAGGA [hsa-miR-320d] was tested, and the percent viability was 50.4% and 40.7%.
With AAUGUGGACUGGUGUGACCAAA [hsa-miR-4491] the percent viability was 45.4%.
Sequence AGGGCCCCCCCUCAAUCCUGU [hsa-miR-296-5p] has a percent viability of 49.5%.
For “UCGCAGACAGGGACACAUGGAGA [hsa-miR-6767-5p]”, the percent viability was 39%.
In the case of “AGGGGGCGCAGUCACUGACGUG [hsa-miR-4697-5p]”, the percent viability was 18.2%.
AAGGGAAGAUGGUGACCAC [hsa-miR-9500] showed a percent viability of 26%.
Sequence “AGUGGUUCUUAACAGUUCAACAGUU [hsa-miR-203a-5p]” has a percent viability of 150%.
CAACACCAGUCGAUGGGCUGU [hsa-miR-21-3p] showed a percent viability of 52.9%.
In the case of “UGAGAACUGAAUUCCAUAGGCU [hsa-miR-146b-5p]”, the percent viability was 52.1%.
With “CACACAAGUGGCCCCCAACACU [hsa-miR-4731-3p]” the percent viability was 29.9%.
“UCUCAGCUGCUGCCCUCUCCAG [hsa-miR-6787-3p]” gave a percent viability of 116%.
UGGGAACUUAGUAGAGGUUUAA [hsa-miR-4471] showed a percent viability of 26.7%.
For CAGGGGGACUGGGGGUGAGC [hsa-miR-6794-5p], the percent viability was 50.1%.
With CUCCUGGGGCCCGCACUCUCGC [hsa-miR-1343] the percent viability was 66.7%.
Work on “CGGGGCCAUGGAGCAGCCUGUGU [hsa-miR-6762-5p]” yielded a percent viability of 86.4%.
UGGGGCUAGUGAUGCAGGACG [hsa-miR-4489] gave a percent viability of 18.6%.
For “UCCCUCGCCUUCUCACCCUCAG [hsa-miR-6803-3p]”, the percent viability was 58.1%.
For ACCUGAGGUUGUGCAUUUCUAA [hsa-miR-544b], the percent viability was 45.3%.
CAGGGAACCAGUUGGGGCUU [hsa-miR-6822-5p] was tested, and the percent viability was 20.6%.
Work on UUAGUGAAGGCUAUUUUAAUU [hsa-miR-3606-5p] yielded a percent viability of 109%.
CCUGUCUGUGCCUGCUGUACA [hsa-miR-3120-5p] was tested, and the percent viability was 127%.
In the case of CAUCUUCCAGUACAGUGUUGGA [hsa-miR-141-5p], the percent viability was 64.8%.
With “UGGUGCGGAGAGGGCCCACAGUG [hsa-miR-675-5p]” the percent viability was 39%.
AGAGGUAGUAGGUUGCAUAGUU [hsa-let-7d-5p] gave a percent viability of 28.7%.
UAAUACUGUCUGGUAAAACCGU [hsa-miR-429] was tested, and the percent viability was 112%.
In the case of AGGAGAUCCUGGGUU [hsa-miR-3676-5p], the percent viability was 30.1%.
